# Laboratory results reported in patent publication US20210388087A1 (Chugai, published 2021).
# T1: Human CD3eg linker (human)
# T1 construct: Single chain: epsilon and gamma subunits of human CD3 joined by a 29-mer linker, Flag-tag at the C-terminus; also called recombinant human CD3
# T1 chain: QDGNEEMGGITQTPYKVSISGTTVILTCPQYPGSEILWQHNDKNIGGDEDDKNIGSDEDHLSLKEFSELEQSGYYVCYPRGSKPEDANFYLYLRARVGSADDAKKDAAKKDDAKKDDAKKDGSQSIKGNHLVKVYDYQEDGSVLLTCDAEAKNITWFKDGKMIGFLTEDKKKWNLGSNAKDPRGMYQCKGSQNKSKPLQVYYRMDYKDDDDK
# Molecular target: T1, Human CD3eg linker
# Experiment: Biacore SPR, vs template H183/L072
row,Binder,fold change of affinity
1,"H183/L072 VH A100fI (antibody, name in Kabat numbering, V domains shown) VH: QVQLVESGGGLVQPGRSLRLSCAASGFTFSNAWMHWVRQAPGKGLEWVAQIKDKGNAYAAYYAPSVKGRFTISRDDSKNSIYLQMNSLKTEDTAVYYCHYVHYASASTVLPIFGVDAWGQGTTVTVSS VL: DIVMTQSPLSLPVTPGEPASISCQASQELVHMNRNTYLHWYQQKPGQAPRLLIYKVSNRFPGVPDRFSGSGSGTDFTLKISRVEAEDVGVYYCAQGTSVPFTFGQGTKLEIK",1 fold
2,"H183/L072 VH A102I (antibody, name in Kabat numbering, V domains shown) VH: QVQLVESGGGLVQPGRSLRLSCAASGFTFSNAWMHWVRQAPGKGLEWVAQIKDKGNAYAAYYAPSVKGRFTISRDDSKNSIYLQMNSLKTEDTAVYYCHYVHYASASTVLPAFGVDIWGQGTTVTVSS VL: DIVMTQSPLSLPVTPGEPASISCQASQELVHMNRNTYLHWYQQKPGQAPRLLIYKVSNRFPGVPDRFSGSGSGTDFTLKISRVEAEDVGVYYCAQGTSVPFTFGQGTKLEIK",0.9 fold
3,"H183/L072 VH D52aM (antibody, name in Kabat numbering, V domains shown) VH: QVQLVESGGGLVQPGRSLRLSCAASGFTFSNAWMHWVRQAPGKGLEWVAQIKMKGNAYAAYYAPSVKGRFTISRDDSKNSIYLQMNSLKTEDTAVYYCHYVHYASASTVLPAFGVDAWGQGTTVTVSS VL: DIVMTQSPLSLPVTPGEPASISCQASQELVHMNRNTYLHWYQQKPGQAPRLLIYKVSNRFPGVPDRFSGSGSGTDFTLKISRVEAEDVGVYYCAQGTSVPFTFGQGTKLEIK",0 fold
4,"H183/L072 VH D52aI (antibody, name in Kabat numbering, V domains shown) VH: QVQLVESGGGLVQPGRSLRLSCAASGFTFSNAWMHWVRQAPGKGLEWVAQIKIKGNAYAAYYAPSVKGRFTISRDDSKNSIYLQMNSLKTEDTAVYYCHYVHYASASTVLPAFGVDAWGQGTTVTVSS VL: DIVMTQSPLSLPVTPGEPASISCQASQELVHMNRNTYLHWYQQKPGQAPRLLIYKVSNRFPGVPDRFSGSGSGTDFTLKISRVEAEDVGVYYCAQGTSVPFTFGQGTKLEIK",0 fold
5,"H183/L072 VH A102P (antibody, name in Kabat numbering, V domains shown) VH: QVQLVESGGGLVQPGRSLRLSCAASGFTFSNAWMHWVRQAPGKGLEWVAQIKDKGNAYAAYYAPSVKGRFTISRDDSKNSIYLQMNSLKTEDTAVYYCHYVHYASASTVLPAFGVDPWGQGTTVTVSS VL: DIVMTQSPLSLPVTPGEPASISCQASQELVHMNRNTYLHWYQQKPGQAPRLLIYKVSNRFPGVPDRFSGSGSGTDFTLKISRVEAEDVGVYYCAQGTSVPFTFGQGTKLEIK",0 fold
6,"H183/L072 VH A102L (antibody, name in Kabat numbering, V domains shown) VH: QVQLVESGGGLVQPGRSLRLSCAASGFTFSNAWMHWVRQAPGKGLEWVAQIKDKGNAYAAYYAPSVKGRFTISRDDSKNSIYLQMNSLKTEDTAVYYCHYVHYASASTVLPAFGVDLWGQGTTVTVSS VL: DIVMTQSPLSLPVTPGEPASISCQASQELVHMNRNTYLHWYQQKPGQAPRLLIYKVSNRFPGVPDRFSGSGSGTDFTLKISRVEAEDVGVYYCAQGTSVPFTFGQGTKLEIK",0.7 fold
7,"H183/L072 VH D52aG (antibody, name in Kabat numbering, V domains shown) VH: QVQLVESGGGLVQPGRSLRLSCAASGFTFSNAWMHWVRQAPGKGLEWVAQIKGKGNAYAAYYAPSVKGRFTISRDDSKNSIYLQMNSLKTEDTAVYYCHYVHYASASTVLPAFGVDAWGQGTTVTVSS VL: DIVMTQSPLSLPVTPGEPASISCQASQELVHMNRNTYLHWYQQKPGQAPRLLIYKVSNRFPGVPDRFSGSGSGTDFTLKISRVEAEDVGVYYCAQGTSVPFTFGQGTKLEIK",0.2 fold
8,"H183/L072 VH D52aE (antibody, name in Kabat numbering, V domains shown) VH: QVQLVESGGGLVQPGRSLRLSCAASGFTFSNAWMHWVRQAPGKGLEWVAQIKEKGNAYAAYYAPSVKGRFTISRDDSKNSIYLQMNSLKTEDTAVYYCHYVHYASASTVLPAFGVDAWGQGTTVTVSS VL: DIVMTQSPLSLPVTPGEPASISCQASQELVHMNRNTYLHWYQQKPGQAPRLLIYKVSNRFPGVPDRFSGSGSGTDFTLKISRVEAEDVGVYYCAQGTSVPFTFGQGTKLEIK",0 fold
9,"H183/L072 VH A100fP (antibody, name in Kabat numbering, V domains shown) VH: QVQLVESGGGLVQPGRSLRLSCAASGFTFSNAWMHWVRQAPGKGLEWVAQIKDKGNAYAAYYAPSVKGRFTISRDDSKNSIYLQMNSLKTEDTAVYYCHYVHYASASTVLPPFGVDAWGQGTTVTVSS VL: DIVMTQSPLSLPVTPGEPASISCQASQELVHMNRNTYLHWYQQKPGQAPRLLIYKVSNRFPGVPDRFSGSGSGTDFTLKISRVEAEDVGVYYCAQGTSVPFTFGQGTKLEIK",0.6 fold
10,"H183/L072 VH A100fL (antibody, name in Kabat numbering, V domains shown) VH: QVQLVESGGGLVQPGRSLRLSCAASGFTFSNAWMHWVRQAPGKGLEWVAQIKDKGNAYAAYYAPSVKGRFTISRDDSKNSIYLQMNSLKTEDTAVYYCHYVHYASASTVLPLFGVDAWGQGTTVTVSS VL: DIVMTQSPLSLPVTPGEPASISCQASQELVHMNRNTYLHWYQQKPGQAPRLLIYKVSNRFPGVPDRFSGSGSGTDFTLKISRVEAEDVGVYYCAQGTSVPFTFGQGTKLEIK",1.2 fold
11,"H183/L072 VH D52aH (antibody, name in Kabat numbering, V domains shown) VH: QVQLVESGGGLVQPGRSLRLSCAASGFTFSNAWMHWVRQAPGKGLEWVAQIKHKGNAYAAYYAPSVKGRFTISRDDSKNSIYLQMNSLKTEDTAVYYCHYVHYASASTVLPAFGVDAWGQGTTVTVSS VL: DIVMTQSPLSLPVTPGEPASISCQASQELVHMNRNTYLHWYQQKPGQAPRLLIYKVSNRFPGVPDRFSGSGSGTDFTLKISRVEAEDVGVYYCAQGTSVPFTFGQGTKLEIK",0.3 fold
12,"H183/L072 VH D52aN (antibody, name in Kabat numbering, V domains shown) VH: QVQLVESGGGLVQPGRSLRLSCAASGFTFSNAWMHWVRQAPGKGLEWVAQIKNKGNAYAAYYAPSVKGRFTISRDDSKNSIYLQMNSLKTEDTAVYYCHYVHYASASTVLPAFGVDAWGQGTTVTVSS VL: DIVMTQSPLSLPVTPGEPASISCQASQELVHMNRNTYLHWYQQKPGQAPRLLIYKVSNRFPGVPDRFSGSGSGTDFTLKISRVEAEDVGVYYCAQGTSVPFTFGQGTKLEIK",0.1 fold
13,"H183/L072 VH D52aL (antibody, name in Kabat numbering, V domains shown) VH: QVQLVESGGGLVQPGRSLRLSCAASGFTFSNAWMHWVRQAPGKGLEWVAQIKLKGNAYAAYYAPSVKGRFTISRDDSKNSIYLQMNSLKTEDTAVYYCHYVHYASASTVLPAFGVDAWGQGTTVTVSS VL: DIVMTQSPLSLPVTPGEPASISCQASQELVHMNRNTYLHWYQQKPGQAPRLLIYKVSNRFPGVPDRFSGSGSGTDFTLKISRVEAEDVGVYYCAQGTSVPFTFGQGTKLEIK",0 fold
14,"H183/L072 VH D52aA (antibody, name in Kabat numbering, V domains shown) VH: QVQLVESGGGLVQPGRSLRLSCAASGFTFSNAWMHWVRQAPGKGLEWVAQIKAKGNAYAAYYAPSVKGRFTISRDDSKNSIYLQMNSLKTEDTAVYYCHYVHYASASTVLPAFGVDAWGQGTTVTVSS VL: DIVMTQSPLSLPVTPGEPASISCQASQELVHMNRNTYLHWYQQKPGQAPRLLIYKVSNRFPGVPDRFSGSGSGTDFTLKISRVEAEDVGVYYCAQGTSVPFTFGQGTKLEIK",0 fold
15,"H183/L072 VH D52aF (antibody, name in Kabat numbering, V domains shown) VH: QVQLVESGGGLVQPGRSLRLSCAASGFTFSNAWMHWVRQAPGKGLEWVAQIKFKGNAYAAYYAPSVKGRFTISRDDSKNSIYLQMNSLKTEDTAVYYCHYVHYASASTVLPAFGVDAWGQGTTVTVSS VL: DIVMTQSPLSLPVTPGEPASISCQASQELVHMNRNTYLHWYQQKPGQAPRLLIYKVSNRFPGVPDRFSGSGSGTDFTLKISRVEAEDVGVYYCAQGTSVPFTFGQGTKLEIK",0 fold
16,"H183/L072 VH D52aP (antibody, name in Kabat numbering, V domains shown) VH: QVQLVESGGGLVQPGRSLRLSCAASGFTFSNAWMHWVRQAPGKGLEWVAQIKPKGNAYAAYYAPSVKGRFTISRDDSKNSIYLQMNSLKTEDTAVYYCHYVHYASASTVLPAFGVDAWGQGTTVTVSS VL: DIVMTQSPLSLPVTPGEPASISCQASQELVHMNRNTYLHWYQQKPGQAPRLLIYKVSNRFPGVPDRFSGSGSGTDFTLKISRVEAEDVGVYYCAQGTSVPFTFGQGTKLEIK",0 fold
17,"H183/L072 VH A100fM (antibody, name in Kabat numbering, V domains shown) VH: QVQLVESGGGLVQPGRSLRLSCAASGFTFSNAWMHWVRQAPGKGLEWVAQIKDKGNAYAAYYAPSVKGRFTISRDDSKNSIYLQMNSLKTEDTAVYYCHYVHYASASTVLPMFGVDAWGQGTTVTVSS VL: DIVMTQSPLSLPVTPGEPASISCQASQELVHMNRNTYLHWYQQKPGQAPRLLIYKVSNRFPGVPDRFSGSGSGTDFTLKISRVEAEDVGVYYCAQGTSVPFTFGQGTKLEIK",1.3 fold
18,"H183/L072 VH D52aK (antibody, name in Kabat numbering, V domains shown) VH: QVQLVESGGGLVQPGRSLRLSCAASGFTFSNAWMHWVRQAPGKGLEWVAQIKKKGNAYAAYYAPSVKGRFTISRDDSKNSIYLQMNSLKTEDTAVYYCHYVHYASASTVLPAFGVDAWGQGTTVTVSS VL: DIVMTQSPLSLPVTPGEPASISCQASQELVHMNRNTYLHWYQQKPGQAPRLLIYKVSNRFPGVPDRFSGSGSGTDFTLKISRVEAEDVGVYYCAQGTSVPFTFGQGTKLEIK",0 fold
19,"H183/L072 VH A102M (antibody, name in Kabat numbering, V domains shown) VH: QVQLVESGGGLVQPGRSLRLSCAASGFTFSNAWMHWVRQAPGKGLEWVAQIKDKGNAYAAYYAPSVKGRFTISRDDSKNSIYLQMNSLKTEDTAVYYCHYVHYASASTVLPAFGVDMWGQGTTVTVSS VL: DIVMTQSPLSLPVTPGEPASISCQASQELVHMNRNTYLHWYQQKPGQAPRLLIYKVSNRFPGVPDRFSGSGSGTDFTLKISRVEAEDVGVYYCAQGTSVPFTFGQGTKLEIK",1 fold
